T1: CEACAM1 (Sino Biological) (human, UniProt P13688 35-428, limits assumed)
T1 construct: may be the same as CEACAM1-HIS; also called hCEACAM1; biotinylated soluble CEACAM1
T1 sequence: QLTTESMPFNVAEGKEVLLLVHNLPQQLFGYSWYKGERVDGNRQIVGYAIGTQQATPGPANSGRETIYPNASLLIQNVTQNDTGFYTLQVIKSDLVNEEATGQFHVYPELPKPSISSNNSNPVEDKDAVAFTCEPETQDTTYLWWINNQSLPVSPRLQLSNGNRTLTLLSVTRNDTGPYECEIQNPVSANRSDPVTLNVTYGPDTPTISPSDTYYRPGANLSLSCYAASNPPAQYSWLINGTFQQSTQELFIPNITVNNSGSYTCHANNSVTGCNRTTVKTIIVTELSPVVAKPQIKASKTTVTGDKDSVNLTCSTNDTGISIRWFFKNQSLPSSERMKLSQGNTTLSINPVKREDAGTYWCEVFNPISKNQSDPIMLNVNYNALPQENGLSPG

B1: Parent VH/L16 (antibody, IgG4, V domains shown)
VH: EVQLLESGGGLVQPGGSLRLSCAASGFSFSDYYLYWVRQAPGKGLEWVATISVGGGQTSYADSVKGRFTISRDNSKNTLYLQMNSLRAEDTAMYYCTRGLYYGPAWFAYWGQGTLVTVSS
VL: DIVMTQSPDSLAVSLGERATINCKSSQSLLNSANQKNYLAWYQQKPGQPPKLLIYFASTRESGVPDRFSGSGSGTDFTLTISSLQAEDVAVYYCQSHYPYPFTFGGGTKVEIK
notes: IgG4 S241P, kappa
B2: He1/L4 #1 (antibody, IgG4, V domains shown)
VH: EVQLLESGGGLVQPGGSLRLSCAASGFSFSDYYLYWVRQAPGKGLEWVATISVGGGQTSYADSVKGRFTISRDNSKNTLYLQMNSLRAEDTAMYYCTRGLYYGPSWFAYWGQGTLVTVSS
VL: DIVMTQSPDSLAVSLGERATINCKSSQSLLNSANQKNYLAWYQQKPGQPPKLLIYFASTRESGVPDRFSGSGSGTDFTLTISSLQAEDVAVYYCQSHFPYYYTFGGGTKVEIK
notes: IgG4 S241P, kappa
B3: He1/L1 (antibody, IgG4, V domains shown)
VH: EVQLLESGGGLVQPGGSLRLSCAASGFSFSDYYLYWVRQAPGKGLEWVATISVGGGQTSYADSVKGRFTISRDNSKNTLYLQMNSLRAEDTAMYYCTRGLYYGPSWFAYWGQGTLVTVSS
VL: DIVMTQSPDSLAVSLGERATINCKSSQSLLNSANQKNYLAWYQQKPGQPPKLLIYFASTRESGVPDRFSGSGSGTDFTLTISSLQAEDVAVYYCQSHYPFYYTFGGGTKVEIK
notes: IgG4 S241P, kappa
B4: He1/L5 (antibody, IgG4, V domains shown)
VH: EVQLLESGGGLVQPGGSLRLSCAASGFSFSDYYLYWVRQAPGKGLEWVATISVGGGQTSYADSVKGRFTISRDNSKNTLYLQMNSLRAEDTAMYYCTRGLYYGPSWFAYWGQGTLVTVSS
VL: DIVMTQSPDSLAVSLGERATINCKSSQSLLNSANQKNYLAWYQQKPGQPPKLLIYFASTRESGVPDRFSGSGSGTDFTLTISSLQAEDVAVYYCQSHYPFAFTFGGGTKVEIK
notes: IgG4 S241P, kappa
B5: He1/Parent VL (antibody, IgG4, V domains shown)
VH: EVQLLESGGGLVQPGGSLRLSCAASGFSFSDYYLYWVRQAPGKGLEWVATISVGGGQTSYADSVKGRFTISRDNSKNTLYLQMNSLRAEDTAMYYCTRGLYYGPSWFAYWGQGTLVTVSS
VL: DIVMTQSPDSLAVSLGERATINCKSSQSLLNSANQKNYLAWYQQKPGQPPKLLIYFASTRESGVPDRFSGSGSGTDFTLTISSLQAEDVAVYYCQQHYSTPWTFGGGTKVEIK
notes: IgG4 S241P, kappa
B6: He3/L3 (antibody, IgG4, V domains shown)
VH: EVQLLESGGGLVQPGGSLRLSCAASGFSFSDYYLYWVRQAPGKGLEWVATISVGGGQTSYADSVKGRFTISRDNSKNTLYLQMNSLRAEDTAMYYCTRALTYGPAWLAYWGQGTLVTVSS
VL: DIVMTQSPDSLAVSLGERATINCKSSQSLLNSANQKNYLAWYQQKPGQPPKLLIYFASTRESGVPDRFSGSGSGTDFTLTISSLQAEDVAVYYCQSHFPFPFTFGGGTKVEIK
notes: IgG4 S241P, kappa
B7: He1/L16 (antibody, IgG4, V domains shown)
VH: EVQLLESGGGLVQPGGSLRLSCAASGFSFSDYYLYWVRQAPGKGLEWVATISVGGGQTSYADSVKGRFTISRDNSKNTLYLQMNSLRAEDTAMYYCTRGLYYGPSWFAYWGQGTLVTVSS
VL: DIVMTQSPDSLAVSLGERATINCKSSQSLLNSANQKNYLAWYQQKPGQPPKLLIYFASTRESGVPDRFSGSGSGTDFTLTISSLQAEDVAVYYCQSHYPYPFTFGGGTKVEIK
notes: IgG4 S241P, kappa
B8: He1/L18 (antibody, IgG4, V domains shown)
VH: EVQLLESGGGLVQPGGSLRLSCAASGFSFSDYYLYWVRQAPGKGLEWVATISVGGGQTSYADSVKGRFTISRDNSKNTLYLQMNSLRAEDTAMYYCTRGLYYGPSWFAYWGQGTLVTVSS
VL: DIVMTQSPDSLAVSLGERATINCKSSQSLLNSANQKNYLAWYQQKPGQPPKLLIYFASTRESGVPDRFSGSGSGTDFTLTISSLQAEDVAVYYCQSHFPYPFTFGGGTKVEIK
notes: IgG4 S241P, kappa
B9: He1/L17 (antibody, IgG4, V domains shown)
VH: EVQLLESGGGLVQPGGSLRLSCAASGFSFSDYYLYWVRQAPGKGLEWVATISVGGGQTSYADSVKGRFTISRDNSKNTLYLQMNSLRAEDTAMYYCTRGLYYGPSWFAYWGQGTLVTVSS
VL: DIVMTQSPDSLAVSLGERATINCKSSQSLLNSANQKNYLAWYQQKPGQPPKLLIYFASTRESGVPDRFSGSGSGTDFTLTISSLQAEDVAVYYCQSHYPYPYTFGGGTKVEIK
notes: IgG4 S241P, kappa
B10: He3/L2 (antibody, IgG4, V domains shown)
VH: EVQLLESGGGLVQPGGSLRLSCAASGFSFSDYYLYWVRQAPGKGLEWVATISVGGGQTSYADSVKGRFTISRDNSKNTLYLQMNSLRAEDTAMYYCTRALTYGPAWLAYWGQGTLVTVSS
VL: DIVMTQSPDSLAVSLGERATINCKSSQSLLNSANQKNYLAWYQQKPGQPPKLLIYFASTRESGVPDRFSGSGSGTDFTLTISSLQAEDVAVYYCQSHYPFPYTFGGGTKVEIK
notes: IgG4 S241P, kappa
B11: He3/L1 (antibody, IgG4, V domains shown)
VH: EVQLLESGGGLVQPGGSLRLSCAASGFSFSDYYLYWVRQAPGKGLEWVATISVGGGQTSYADSVKGRFTISRDNSKNTLYLQMNSLRAEDTAMYYCTRALTYGPAWLAYWGQGTLVTVSS
VL: DIVMTQSPDSLAVSLGERATINCKSSQSLLNSANQKNYLAWYQQKPGQPPKLLIYFASTRESGVPDRFSGSGSGTDFTLTISSLQAEDVAVYYCQSHYPFYYTFGGGTKVEIK
notes: IgG4 S241P, kappa
B12: He1/L6 (antibody, IgG4, V domains shown)
VH: EVQLLESGGGLVQPGGSLRLSCAASGFSFSDYYLYWVRQAPGKGLEWVATISVGGGQTSYADSVKGRFTISRDNSKNTLYLQMNSLRAEDTAMYYCTRGLYYGPSWFAYWGQGTLVTVSS
VL: DIVMTQSPDSLAVSLGERATINCKSSQSLLNSANQKNYLAWYQQKPGQPPKLLIYFASTRESGVPDRFSGSGSGTDFTLTISSLQAEDVAVYYCQSHYPFSFTFGGGTKVEIK
notes: IgG4 S241P, kappa
B13: He1/L19 (antibody, IgG4, V domains shown)
VH: EVQLLESGGGLVQPGGSLRLSCAASGFSFSDYYLYWVRQAPGKGLEWVATISVGGGQTSYADSVKGRFTISRDNSKNTLYLQMNSLRAEDTAMYYCTRGLYYGPSWFAYWGQGTLVTVSS
VL: DIVMTQSPDSLAVSLGERATINCKSSQSLLNSANQKNYLAWYQQKPGQPPKLLIYFASTRESGVPDRFSGSGSGTDFTLTISSLQAEDVAVYYCQSHIYPNFTFGGGTKVEIK
notes: IgG4 S241P, kappa
B14: He1/L3 (antibody, IgG4, V domains shown)
VH: EVQLLESGGGLVQPGGSLRLSCAASGFSFSDYYLYWVRQAPGKGLEWVATISVGGGQTSYADSVKGRFTISRDNSKNTLYLQMNSLRAEDTAMYYCTRGLYYGPSWFAYWGQGTLVTVSS
VL: DIVMTQSPDSLAVSLGERATINCKSSQSLLNSANQKNYLAWYQQKPGQPPKLLIYFASTRESGVPDRFSGSGSGTDFTLTISSLQAEDVAVYYCQSHFPFPFTFGGGTKVEIK
notes: IgG4 S241P, kappa
B15: He1/L2 (antibody, IgG4, V domains shown)
VH: EVQLLESGGGLVQPGGSLRLSCAASGFSFSDYYLYWVRQAPGKGLEWVATISVGGGQTSYADSVKGRFTISRDNSKNTLYLQMNSLRAEDTAMYYCTRGLYYGPSWFAYWGQGTLVTVSS
VL: DIVMTQSPDSLAVSLGERATINCKSSQSLLNSANQKNYLAWYQQKPGQPPKLLIYFASTRESGVPDRFSGSGSGTDFTLTISSLQAEDVAVYYCQSHYPFPYTFGGGTKVEIK
notes: IgG4 S241P, kappa
B16: He1/L20 (antibody, IgG4, V domains shown)
VH: EVQLLESGGGLVQPGGSLRLSCAASGFSFSDYYLYWVRQAPGKGLEWVATISVGGGQTSYADSVKGRFTISRDNSKNTLYLQMNSLRAEDTAMYYCTRGLYYGPSWFAYWGQGTLVTVSS
VL: DIVMTQSPDSLAVSLGERATINCKSSQSLLNSANQKNYLAWYQQKPGQPPKLLIYFASTRESGVPDRFSGSGSGTDFTLTISSLQAEDVAVYYCQSHFPYPLTFGGGTKVEIK
notes: IgG4 S241P, kappa
B17: He1/L4#2 (antibody, IgG4, V domains shown)
VH: EVQLLESGGGLVQPGGSLRLSCAASGFSFSDYYLYWVRQAPGKGLEWVATISVGGGQTSYADSVKGRFTISRDNSKNTLYLQMNSLRAEDTAMYYCTRGLYYGPSWFAYWGQGTLVTVSS
VL: DIVMTQSPDSLAVSLGERATINCKSSQSLLNSANQKNYLAWYQQKPGQPPKLLIYFASTRESGVPDRFSGSGSGTDFTLTISSLQAEDVAVYYCQSHYPYPYTFGGGTKVEIK
notes: IgG4 S241P, kappa

Molecular target: T1, CEACAM1 (Sino Biological)
Assay: SPR single-cycle
Protocol: To assess the binding of the humanized affinity matured IgGs, single cycle kinetics analysis was performed on crude supernatants using a Biacore T200 running Biacore T200 Control Software V2.0.1 and Biacore T200 Evaluation Software V3.0 (Uppsala, Sweden). Antibodies were diluted in HBS-P+ (GE Healthcare) to a final concentration of […]. At the start of each cycle, antibodies were loaded onto Fc2, Fc3 and Fc4 of the Protein A chip (GE Healthcare). IgGs were captured at a flow rate of 10 μl/min to give an immobilization level (RL) of ˜100 RU (a level calculated to obtain an Rmax of ˜50-150 RU once the analyte is bound). The surface was then allowed to stabilize. Single cycle kinetics data was obtained with CEACAM1 as the analyte at a flow rate of […] to minimize any potential mass transfer effects. Multiple repeats with the parent (VH2 N56Q/Vκ4 S27(f)A) antibody were performed to check the stability of the surface and analyte over the kinetic cycles. The signal from the reference channel Fc1 (no antibody) was subtracted from that of Fc2, Fc3 and Fc4 to correct for differences in non-specific binding to the reference surface. A three point, two-fold dilution range from 25 nM to 100 nM CEACAM 1 without regeneration between each concentration was used. The signal from each antibody blank run (no CEACAM1) was subtracted to correct for differences in surface stability. The association phase for the three injections of increasing concentrations of CEACAM1 was monitored for 200 seconds each time and a single dissociation phase was measured for 300 seconds following the last injection of CEACAM1. Regeneration of the Protein A surface was conducted using two injections of 10 mM glycine-HCL pH 1.5 followed by a stabilization period of 240 seconds.

Binder	Kd [nM]	fold better than Parent (KD) [fold]
B1	61	2.62
B2	429	1.28
B3	568	0.97
B4	307	1.8
B5	544	1.01
B6	163	0.98
B7	341	1.62
B8	326	1.69
B9	374	1.47
B10	86	1.85
B11	62	2.57
B12	402	1.37
B13	996	0.55
B14	263	2.1
B15	487	1.13
B16	264	2.09
B17	301	1.83

Source: patent US20250388666A1 (BRIGHAM AND WOMEN S HOSPITAL, published 2025)
